# Measured values published in patent US20260167959A1, “APTAZYME-BASED REGULATABLE GENE EXPRESSION SYSTEMS” (REJUVENATE BIO INC, priority 2022, published 2026).
# Test system: Renilla luciferase RNA
# Test: Barcoded aptazyme variant library screen: un-cleaved Renilla luciferase RNA by barcode read counts, HEK293-T cells
# Assay type: cell-based
# Details: un-cleaved Renilla luciferase RNA by barcode read counts; with 1 mM theophylline (ON) over without theophylline (OFF); HEK293-T cells; triplicate
# Method in brief: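 Aptazyme variants (seven theophylline aptamers inserted after each T3H48 ribozyme nucleotide, 9-nt barcoded) cloned into the 3′ UTR of Renilla luciferase in psiCHECK-2; cells cultured ± theophylline, in triplicate. RNA and DNA barcodes amplified and sequenced; normalized read counts gave un-cleaved RNA fraction and ON/OFF fold-change.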
row,Molecule,Fold change in RNA expression between the ON state and the OFF state
1,"RA366 (nucleic acid, expressed or natural sequence) DNA: GCGCGTCCTGGATTCGCGGAAGAGAATACCAGCATCGTCTTGATGCCCTTGGAAGTCTCACGCGTACATCCAGCTGACGAGTCCCAAATAGGACGAAACGCGC",0.8
2,"RA367 (nucleic acid, expressed or natural sequence) DNA: GCGCGTCCTGGATGGAATACCAGCATCGTCTTGATGCCCTTGGAAGTCCTCGCGGAAACGCGTACATCCAGCTGACGAGTCCCAAATAGGACGAAACGCGC",0.8
3,"RA368 (nucleic acid, expressed or natural sequence) DNA: GCGCGTCCTGGATTCGCGGAAACGCGTACATCCAGCTGACGAGTCCCGAGAATACCAGCATCGTCTTGATGCCCTTGGAAGTCTCGCAAATAGGACGAAACGCGC",0.8
4,"RA369 (nucleic acid, expressed or natural sequence) DNA: GCGCGTCCTGGATTCGGAATACCAGCATCGTCTTGATGCCCTTGGAAGTCCGCGCGGAAACGCGTACATCCAGCTGACGAGTCCCAAATAGGACGAAACGCGC",0.8
5,"RA370 (nucleic acid, expressed or natural sequence) DNA: GCGCGTCCTGGATTCGCGGAAACGCGTACATCCAGCTGACGAGTCCCAAATAGGACGAAACGGGAATACCAGCATCGTCTTGATGCCCTTGGAAGTCCCGC",0.8
6,"RA371 (nucleic acid, expressed or natural sequence) DNA: GCGCGTCCTGGATTCGCGGAAACGCGTACATCCAGCTGACGAGTCCCAAAAGAATACCAGCATCGTCTTGATGCCCTTGGAAGTCTTAGGACGAAACGCGC",0.8
7,"RA372 (nucleic acid, expressed or natural sequence) DNA: GCGCGTCCTGGATTCGCGGAAACGCGTACATCCAGCTGACGAGTCCCAAACGAGAATACCAGCATCGTCTTGATGCCCTTGGAAGTCTCGTAGGACGAAACGCGC",0.8
8,"RA373 (nucleic acid, expressed or natural sequence) DNA: GCGCGTCCTGGATTCGCGGAAACGCGTACATCCAGCTGACGAGTCCCAAGTGATACCAGCATCGTCTTGATGCCCTTGGCAGCACTAATAGGACGAAACGCGC",0.8
9,"RA374 (nucleic acid, expressed or natural sequence) DNA: GCGCGTCCTGGATTCGCGGAAACGCGTACATCCAGCTGCCGGAATACCAGCATCGTCTTGATGCCCTTGGAAGTCCGGACGAGTCCCAAATAGGACGAAACGCGC",0.8
10,"RA375 (nucleic acid, expressed or natural sequence) DNA: GCGCGTCCTGGATTCGCGGAAACGCGTACATCCAGCTCCGGAATACCAGCATCGTCTTGATGCCCTTGGAAGTCCGGGACGAGTCCCAAATAGGACGAAACGCGC",0.8
11,"RA376 (nucleic acid, expressed or natural sequence) DNA: GCGCGTCCTGGATTCGCGGAAACGCGTACATCCAGCTGAAGAATACCAGCATCGTCTTGATGCCCTTGGAAGTCTCGAGTCCCAAATAGGACGAAACGCGC",0.8
12,"RA377 (nucleic acid, expressed or natural sequence) DNA: GCGCGTCCTGGATTCGCGGAAACGCGTACATCCAGCTGACGAGTCCCAAATAGGACGGAGAATACCAGCATCGTCTTGATGCCCTTGGAAGTCTCAAACGCGC",0.8
13,"RA378 (nucleic acid, expressed or natural sequence) DNA: GCGCGTCCTGGATTCGCGGAAACGCGTACATCCCGGAATACCAGCATCGTCTTGATGCCCTTGGAAGTCCGGCAGCTGACGAGTCCCAAATAGGACGAAACGCGC",0.8
14,"RA379 (nucleic acid, expressed or natural sequence) DNA: GCGCGTCCTGGATTCGCGGAAACGCGGAATACCAGCATCGTCTTGATGCCCTTGGAAGTCCGTACATCCAGCTGACGAGTCCCAAATAGGACGAAACGCGC",0.8
15,"RA380 (nucleic acid, expressed or natural sequence) DNA: GCGCGTCCTGGATTCGCGGAAACGCCGAGAATACCAGCATCGTCTTGATGCCCTTGGAAGTCTCGGTACATCCAGCTGACGAGTCCCAAATAGGACGAAACGCGC",0.8
16,"RA381 (nucleic acid, expressed or natural sequence) DNA: GCGCGTCCTGGATTCGCGGAAACGCGTACATCCAGCTGACGAGTCCCAAATAGGACGAAACGCGCCCGGAATACCAGCATCGTCTTGATGCCCTTGGAAGTCCGG",0.8
17,"RA382 (nucleic acid, expressed or natural sequence) DNA: GCGCGTCCTGGATTCGCGGAAACGCGTACATCCAGCTGACGCCGGAATACCAGCATCGTCTTGATGCCCTTGGAAGTCCGGAGTCCCAAATAGGACGAAACGCGC",0.8
18,"RA383 (nucleic acid, expressed or natural sequence) DNA: CGGAATACCAGCATCGTCTTGATGCCCTTGGAAGTCCGGCGCGTCCTGGATTCGCGGAAACGCGTACATCCAGCTGACGAGTCCCAAATAGGACGAAACGCGC",0.8
19,"RA384 (nucleic acid, expressed or natural sequence) DNA: GCGCGTCCTGGATTCGCGGAAACGCGTACATCCAGCTGACGAGTCGAGAATACCAGCATCGTCTTGATGCCCTTGGAAGTCTCCCAAATAGGACGAAACGCGC",0.8
20,"RA385 (nucleic acid, expressed or natural sequence) DNA: GCGCGTCCTGGATCCGGAATACCAGCATCGTCTTGATGCCCTTGGAAGTCCGGTCGCGGAAACGCGTACATCCAGCTGACGAGTCCCAAATAGGACGAAACGCGC",0.8
21,"RA386 (nucleic acid, expressed or natural sequence) DNA: GCGCGTCCTGGATTCGCGGAAACGCGTACATCCAGCTGACGGGAATACCAGCATCGTCTTGATGCCCTTGGAAGTCCAGTCCCAAATAGGACGAAACGCGC",0.8
22,"RA387 (nucleic acid, expressed or natural sequence) DNA: GCGCGTCCTGGATTCGCGGAAACGCGCCGGAATACCAGCATCGTCTTGATGCCCTTGGAAGTCCGGTACATCCAGCTGACGAGTCCCAAATAGGACGAAACGCGC",0.8
23,"RA388 (nucleic acid, expressed or natural sequence) DNA: GCGCGTCCTGAGTGATACCAGCATCGTCTTGATGCCCTTGGCAGCACTGATTCGCGGAAACGCGTACATCCAGCTGACGAGTCCCAAATAGGACGAAACGCGC",0.8
24,"RA389 (nucleic acid, expressed or natural sequence) DNA: GCGCGTCCTGGATTCGCGGAAACGCGTACCGGAATACCAGCATCGTCTTGATGCCCTTGGAAGTCCGATCCAGCTGACGAGTCCCAAATAGGACGAAACGCGC",0.8

# Same assay, conditions: un-cleaved Renilla luciferase RNA, HEK293-T cells cultured with 1 mM theophylline (ON) over without theophylline (OFF); barcode read counts, triplicate
row,Molecule,Fold change in RNA expression between the ON state and the OFF state
1,"RA036 (nucleic acid, expressed or natural sequence) DNA: GCGCGTCCTGGATTCGCGGAAACGCGTACATCCAGCTGACGAGTCCCAAATAGGCGAGAATACCAGCATCGTCTTGATGCCCTTGGAAGTCTCGACGAAACGCGC",2.2 fold
2,"RA003 (nucleic acid, expressed or natural sequence) DNA: GCGCGTCCTGCGGAATACCAGCATCGTCTTGATGCCCTTGGAAGTCCGGATTCGCGGAAACGCGTACATCCAGCTGACGAGTCCCAAATAGGACGAAACGCGC",5.5 fold
3,"RA037 (nucleic acid, expressed or natural sequence) DNA: GCGCGTCCTGGATTCGCCGGAATACCAGCATCGTCTTGATGCCCTTGGAAGTCCGGGAAACGCGTACATCCAGCTGACGAGTCCCAAATAGGACGAAACGCGC",2.2 fold
4,"RA038 (nucleic acid, expressed or natural sequence) DNA: GCGCGTCCTGGATTCGCGGAAACGCGTACATCAGAATACCAGCATCGTCTTGATGCCCTTGGAAGTCTCAGCTGACGAGTCCCAAATAGGACGAAACGCGC",2.2 fold
